Measured values as given in patent US20150309050A1.
No end group written: not given here.

Experiments:
VT026 antiserum [1] = test: competition RIA, antiserum 1:100K, tracer iodinated PACAP(31-38)
VT027 antiserum [2] = test: competition RIA, antiserum 1:200K, tracer iodinated PACAP(31-38)
VT028 antiserum [3] = test: as above
VT026 antiserum [4] = test: RIA standard curve, tracer iodinated PACAP(31-38); 4 pg cold standard
VT027 antiserum [5] = test: as above
VT028 antiserum [6] = test: as above
VT026 antiserum [7] = test: RIA standard curve, tracer iodinated PACAP(31-38); 1 pg cold standard
VT027 antiserum [8] = test: as above
VT028 antiserum [9] = test: as above
VT026 antiserum [10] = test: RIA standard curve, tracer iodinated PACAP(31-38); 2 pg cold standard
VT027 antiserum [11] = test: as above
VT028 antiserum [12] = test: as above
VT028 antiserum [13] = test: RIA standard curve, tracer iodinated PACAP(31-38); 8 pg cold standard
VT026 antiserum [14] = test: RIA standard curve, tracer iodinated PACAP(31-38); 32 pg cold standard
VT027 antiserum [15] = test: as above
VT028 antiserum [16] = test: as above
VT028 antiserum [17] = test: RIA standard curve, tracer iodinated PACAP(31-38); 16 pg cold standard
VT026 antiserum [18] = test: RIA standard curve, tracer iodinated PACAP(31-38); 128 pg cold standard
VT028 antiserum [19] = test: as above
VT026 antiserum [20] = test: RIA standard curve, tracer iodinated PACAP(31-38); 255 pg cold standard
VT027 antiserum [21] = test: as above
VT028 antiserum [22] = test: as above
VT026 antiserum [23] = test: RIA standard curve, tracer iodinated PACAP(31-38); 510 pg cold standard
VT027 antiserum [24] = test: as above
VT028 antiserum [25] = test: as above
VT026 antiserum [26] = test: RIA standard curve, tracer iodinated PACAP(31-38); 1,020 pg cold standard
VT027 antiserum [27] = test: as above
VT026 antiserum [28] = test: RIA standard curve, tracer iodinated PACAP(31-38); 2,040 pg cold standard
VT027 antiserum [29] = test: as above
[30] = biological target: PACAP38 RIA antiserum (Peninsula Laboratories); test: competition RIA, double antibody immunoprecipitation, antiserum 1:30,000
VT026 antiserum [31] = test: RIA standard curve, tracer iodinated PACAP(31-38); 5 pg cold standard (so in the source)
VT027 antiserum [32] = test: RIA standard curve, tracer iodinated PACAP(31-38); 3 pg cold standard (so in the source)
VT026 antiserum [33] = test: RIA standard curve, tracer iodinated PACAP(31-38); 18 pg cold standard (so in the source)
VT027 antiserum [34] = test: as above
VT026 antiserum [35] = test: RIA standard curve, tracer iodinated PACAP(31-38); 84 pg cold standard (so in the source)
VT027 antiserum [36] = test: as above
VT028 antiserum [37] = test: RIA standard curve, tracer iodinated PACAP(31-38); 54 pg cold standard (so in the source)
VT027 antiserum [38] = test: RIA standard curve, tracer iodinated PACAP(31-38); 125 pg cold standard (so in the source)
VT027 antiserum [39] = test: competition RIA, tracer iodinated PACAP(31-38); low end tied to VT027 by Table 6 (41 pg)
VT026 antiserum [40] = test: competition RIA, tracer iodinated PACAP(31-38); high end tied to VT026 by Table 5 (20.3 fmol)
VT028 antiserum [41] = test: RIA standard curve, tracer iodinated PACAP(31-38); 1.020 pg cold standard as printed (read as 1,020)
VT028 antiserum [42] = test: RIA standard curve, tracer iodinated PACAP(31-38); 2.040 pg cold standard as printed (read as 2,040)
VT028 antiserum [43] = test: RIA standard curve, tracer iodinated PACAP(31-38); 1 pg cold standard; period in the CPM read as thousands mark
VT028 antiserum [44] = test: RIA standard curve, tracer iodinated PACAP(31-38); 2 pg cold standard; period in the CPM read as thousands mark
VT028 antiserum [45] = test: RIA standard curve, tracer iodinated PACAP(31-38); 4 pg cold standard; period in the CPM read as thousands mark
VT028 antiserum [46] = test: RIA standard curve, tracer iodinated PACAP(31-38); 8 pg cold standard; period in the CPM read as thousands mark
VT028 antiserum [47] = test: RIA standard curve, tracer iodinated PACAP(31-38); 16 pg cold standard; period in the CPM read as thousands mark
VT028 antiserum [48] = test: RIA standard curve, tracer iodinated PACAP(31-38); 32 pg cold standard; period in the CPM read as thousands mark
VT028 antiserum [49] = test: RIA standard curve, tracer iodinated PACAP(31-38); 128 pg cold standard; period in the CPM read as thousands mark
VT028 antiserum [50] = test: RIA standard curve, tracer iodinated PACAP(31-38); 255 pg cold standard; period in the CPM read as thousands mark
VT028 antiserum [51] = test: RIA standard curve, tracer iodinated PACAP(31-38); 510 pg cold standard; period in the CPM read as thousands mark
VT028 antiserum [52] = test: RIA standard curve, tracer iodinated PACAP(31-38); 54 pg cold standard (so in the source); period in the CPM read as thousands mark
VT028 antiserum [53] = test: RIA standard curve, tracer iodinated PACAP(31-38); 1.020 pg cold standard as printed (read as 1,020); period in the CPM read as thousands mark

- DETECTION LIMIT (VT026 antiserum [1]): 5.38 pg
- MIDPOINT [fmol] (VT026 antiserum [1]): 20.3 fmol
- MIDPOINT [pg] (VT026 antiserum [1]): 92 pg
- DETECTION LIMIT (VT027 antiserum [2]): 2.19 pg
- MIDPOINT [fmol] (VT027 antiserum [2]): 92 fmol
- MIDPOINT [pg] (VT027 antiserum [2]): 41 pg
- DETECTION LIMIT (VT028 antiserum [3]): 6.69 pg
- MIDPOINT [fmol] (VT028 antiserum [3]): 19.3 fmol
- MIDPOINT [pg] (VT028 antiserum [3]): 67 pg
- BINDING (VT026 antiserum [4]): 0.957
- CPM (VT026 antiserum [4]): 5510 cpm
- BINDING (VT027 antiserum [5]): 0.589
- CPM (VT027 antiserum [5]): 7280 cpm
- BINDING (VT028 antiserum [6]): 0.946
- BINDING (VT026 antiserum [7]): 0.973
- CPM (VT026 antiserum [7]): 5600 cpm
- BINDING (VT027 antiserum [8]): 0.978
- CPM (VT027 antiserum [8]): 7960 cpm
- BINDING (VT028 antiserum [9]): 0.993
- BINDING (VT026 antiserum [10]): 0.961
- CPM (VT026 antiserum [10]): 5540 cpm
- BINDING (VT027 antiserum [11]): 0.931
- CPM (VT027 antiserum [11]): 7620 cpm
- BINDING (VT028 antiserum [12]): 0.981
- BINDING (VT028 antiserum [13]): 0.914
- BINDING (VT026 antiserum [14]): 0.728
- CPM (VT026 antiserum [14]): 4250 cpm
- BINDING (VT027 antiserum [15]): 0.584
- CPM (VT027 antiserum [15]): 4860 cpm
- BINDING (VT028 antiserum [16]): 0.77
- BINDING (VT028 antiserum [17]): 0.88
- BINDING (VT026 antiserum [18]): 0.427
- CPM (VT026 antiserum [18]): 2800 cpm
- BINDING (VT028 antiserum [19]): 0.367
- BINDING (VT026 antiserum [20]): 0.271
- CPM (VT026 antiserum [20]): 1740 cpm
- BINDING (VT027 antiserum [21]): 0.147
- CPM (VT027 antiserum [21]): 1140 cpm
- BINDING (VT028 antiserum [22]): 0.227
- BINDING (VT026 antiserum [23]): 0.142
- CPM (VT026 antiserum [23]): 1030 cpm
- BINDING (VT027 antiserum [24]): 0.0789
- CPM (VT027 antiserum [24]): 875 cpm
- BINDING (VT028 antiserum [25]): 0.133
- BINDING (VT026 antiserum [26]): 0.0598
- CPM (VT026 antiserum [26]): 800 cpm
- BINDING (VT027 antiserum [27]): 0.0512
- CPM (VT027 antiserum [27]): 858 cpm
- BINDING (VT026 antiserum [28]): 0.0479
- CPM (VT026 antiserum [28]): 515 cpm
- BINDING (VT027 antiserum [29]): 0.0302
- CPM (VT027 antiserum [29]): 490 cpm
- assay midpoint [30]: 3.5 fmol
- BINDING (VT026 antiserum [31]): 0.945
- CPM (VT026 antiserum [31]): 5450 cpm
- BINDING (VT027 antiserum [32]): 0.835
- CPM (VT027 antiserum [32]): 6850 cpm
- BINDING (VT026 antiserum [33]): 0.859
- CPM (VT026 antiserum [33]): 4980 cpm
- BINDING (VT027 antiserum [34]): 0.715
- CPM (VT027 antiserum [34]): 5900 cpm
- BINDING (VT026 antiserum [35]): 0.502
- CPM (VT026 antiserum [35]): 3450 cpm
- BINDING (VT027 antiserum [36]): 0.411
- CPM (VT027 antiserum [36]): 3500 cpm
- BINDING (VT028 antiserum [37]): 0.606
- BINDING (VT027 antiserum [38]): 0.245
- CPM (VT027 antiserum [38]): 2190 cpm
- assay midpoint (VT027 antiserum [39]): 9 fmol
- assay midpoint (VT026 antiserum [40]): 20 fmol
- BINDING (VT028 antiserum [41]): 0.0685
- BINDING (VT028 antiserum [42]): 0.0389
- CPM (VT028 antiserum [42]): 684 cpm
- CPM (VT028 antiserum [43]): 11300 cpm
- CPM (VT028 antiserum [44]): 11200 cpm
- CPM (VT028 antiserum [45]): 10800 cpm
- CPM (VT028 antiserum [46]): 10400 cpm
- CPM (VT028 antiserum [47]): 10100 cpm
- CPM (VT028 antiserum [48]): 8840 cpm
- CPM (VT028 antiserum [49]): 4350 cpm
- CPM (VT028 antiserum [50]): 2760 cpm
- CPM (VT028 antiserum [51]): 1730 cpm
- CPM (VT028 antiserum [52]): 7010 cpm
- CPM (VT028 antiserum [53]): 1020 cpm
Binder: HSDGIFTDSYSRYRKQMAVKKYLAAVLGKRYKQRVKNK (peptide, UniProt P18509 132-169, looked up, not fully specified; ends and bridges not checked) [PACAP38]
